Measurements from the nanobody polyreactivity screen of Harvey et al. (2022).

Assay: yeast display, Sf9 membrane polyspecificity reagent, FACS + sequencing; frameworks hold sequencing errors
Outline: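 Nanobodies from a synthetic yeast display library (Saccharomyces cerevisiae BJ5465), induced 36–48 hours with galactose, were stained 1 hour at 4 °C with 10% biotinylated, detergent-solubilized Sf9 membrane reagent, enriched on streptavidin microbeads, then FACS-sorted. Anti-HA (expression) and streptavidin (reagent binding) fluorescence set low and high (top ~1%) gates. Polyreactivity labels come from the gate of origin. Genes were colony-PCR amplified, MiSeq 2 × 250 sequenced and filtered by CDR length.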

| Sequence | polyreactivity (PSR sort gate) |
| --- | --- |
| QVQLVESGGGLVQAGGSLRLSCAASGRTFYNAMGWYRPAPGKERELVAAISGSGGSTYYADSVKGRFTISRDNAKNTVYLKMNSLKPEDTAVYYCAARSVWWQVSQGNYWGQGTQVTVSS | low polyreactivity |
| QVQLVESGGGLVQAGGSLRLSCAASGFTFGWYAMGWYRQAPGKERELVAAISRRGGTTYYADSVKGRFTISRDNAKNTVYLQMNSLKPEDTAVYYCAATSYTYVLSPYRGDYWGQGTQVTVSS | high polyreactivity |
| QVQLVESGGGLVQAVGSLRLSCAASGRTIAGYTMGWYRQARGQERELVAAISGRGGSTYYADSVKGRYTISRDNAKNTVYLQMNSLKPEDTAVYYCAAYTQGYWGRGRYGYCGQGTQVTVSS | high polyreactivity |
| QVQLVESGGGLVQAGGSLRLSCAASGFTFYSYAMGWNRQAPGKERELVAAISGGGGSTYYADSVKGRFTISRDNAKNTVYLQMNSLKPEDTAVYYCAKRPAYRGYGLGYYWGQGTQVTVSS | high polyreactivity |
| QVQLVESGGGLVQAGGSLRLSCAASGSIFYRYAMGWYRQAPGKERELVADISSGGGTSYADSVKGRFTISRDNAKNTVYLQMNSLKPEDTAVYYCAAELYYWTYVRFDYWGQGTQVTVSS | low polyreactivity |
| QVQLVESGGGLVQAGGSLRLSCAASGSTFSNYALGWYRPAPGKERELVAAITGRGGRTYYADSVKGRFTISRDNAKNTVYLQMNSLKPEDTAVYYCNADYWSRMDYWGQGTQVTVSS | high polyreactivity |
| QGQLVESGRGLVQAGGSLRLSCAASGRIFYSYAMGWYRQAPGKERELVAAISSGGSTKYADSVKGRFTISRDNAKNTVYLQMNSLKPEDTAVYYCAARTYQKGGRYYYWGQGTQVTVSS | high polyreactivity |
| QVQLVESGVGIVQAGGSLRLSCAASGFTFDNYVMGWYRQAPGKERELVAAISTGSRTYYADSVKGRFTISRDNAKNTVYLQMNSLKPEDTAVYYCAASYVRRSWYSNDYWGQGTQVTVSS | high polyreactivity |
| QVQLVESGGGLVQAGGSLRLSCAASGSILGSYAMGWYRQAPGKERELVAAISWNGARTYYADSVKGRFTISRDNAKNTVYLQMNSLKPEDTAVYYCARVRVGRTTFDYWGQGTQVTVSS | low polyreactivity |
| QDQLVESGGGLVQAGGSLRLSCAASGHIISTYAMGWYRPAPGKERQLVASISENGGTTYYADSVKGRFTISRDIAKNTVYLQMYSLKPEDTAVYYCNADAYVYFDDGDYWGQGTQVTVSS | low polyreactivity |
| QVQLGESGLGLVQAGGSLRLSCAAYGSIFYIYAMGWYRQAPGKERELVAAISRSGGRTYYADSVKGRFTISRDNAKNTVYLQMNSLKPEYTAVYYCAARDHYSNGGMNYWGQGTQVTVSS | high polyreactivity |
| QVQLVESGGGLVQAGGSLRLSCAASGSIFGNYVMGWYRPAPGKERELVAAISWSGGTNYADSVKGRFTISRDNAKNTVYLQMNSLKPEDTAVYYCAALSVWSYYTYYYWGQGTQVTVSS | high polyreactivity |
| QVQLVESGGGLVQAGGSLRLSCAASGSIQYRYAMGWYRQAPGKERELVAAITRSGGSTYYADSVKGRFTISRDNAKNTVYLQMNSLKPEDTAVYYCARQRKVSAHSIEMDYWGQGTQVTVSS | low polyreactivity |
| QVQLVESGGGLVQAGGSLRLSCAASGSIFPSYAMGWYRPAPGIERELVAAINWDGGSTFYADSVKGRFTISRDNAKNTVYLQMNSLKPEDTAVYYCAKYTYQEIRNVGRRGHYYWGQGTQVTVSS | low polyreactivity |
| QVQLVESGGGIVQAGGSLRLSCAASGRTFQPYAMGWYRQAPGKERELVAAITSIGGSTFYADSVKGRFTISRDNAKNTVYLQMNSLKPEDTAVYYCARRGYYRSKWERDYWGQGTQVTVSS | low polyreactivity |
| QVQLVETGGGLVQAGGSLRLSCAASGFIFSAYAMGWYRQAPGKEREFVAAISKRGGSTYYADSVKGRFTISRENAKNTVYLQMNTLKPDDTAVYYCAAPYSRYLVGYGYWGQGTQVTVSS | high polyreactivity |
| QVQLVESGGGLVQAGGSLRLSCAASGSTFYAYAMGWYRPAPGKERELVAAISSDGTNYADSVKGRFTISRDNAKNTVYLQMNSLKPEDTAVYYCAADLLLYSSQDNDYWGQGTQVTVSS | low polyreactivity |
| QVHLVESGGGLVQAGGSLRLSCAASGRTFYSYAMGWYRQAHGKERELVAAINTSGGRKHYADSVKGRFTISRDNAKNTVYLQMNSLKPEDTAVYYCAARYLGGRLSGDYSRYYWGQGTQVTVSS | high polyreactivity |
| QVQLVESGGGLVQAGGSLRLSCAASVRTFSAYAMGCSRQAPGKERELVARITSVDSTNYSDSVNGRFTFSRDNAKNNVYLQMNSLKPEDTAVYSCNATFGYPFVDYDDYWGQGTQVTVSS | low polyreactivity |
| QVQRVESGGGLVQAAASLRLSCAASGRTFYVYTMGWYRPAPGKERELVAAITSGGSTNYADSVKGRFTISRDNAKNTVSLHMNSLKPEVTAVYYCAARVSTVFKRYYYWGQGTQVTVSS | high polyreactivity |
| QVQLEESGGGLVQAGGSLRLSCAASGGNFPVNAIGWYRQAPGKERELVATITYDGGNTYYADSVKGRFTISRDNAKNTVYLQMNSLKPEDTAVYYCAARTPQRSEWTKYGYWGQGTLVTVSS | low polyreactivity |
| QVQRVESGGGLVQAGGSLRLSCAASRITFTVNAMGWYRQAPGKERELVAAISWSGGSTYYADSVKGRFTISRDIAKNTVYLQMNSLKPEDTAVYYCNAVLYRFAYNYWGQGTQVTVSS | low polyreactivity |

| Sequence | polyreactivity (PSR sort gate) |
| --- | --- |
| QVQLVESGGGLVQAGGSLRLICPASGRIFRYYAMGWYRQARGKERELVAGITTGGGSTYYADSVKGRFTISRDNAKNTVFLQMNSLKPEDTAVYYCAARYYTTYYCGQGTQVTVSS | high polyreactivity |
| QVQLVESGGGLVKAGGSLRLSCAASGSIITIYAMGWYRQAPGKERDWVATITGGGGSTYYADSVKGRFTISRDNAKNTVYFKMNSLKPEETAVYYCAADSPGWSYTSRSYDYWGQGTQVTVSS | low polyreactivity |
| QVQLVESGGCLVQAGGSLRLSCAASGSTFLSYAMGWYRQAPGKERELVAAISYSAGSTYYADSVKGRFTISRDNAKNTVYLQMNSLKPEDTAVYYCAAYDYSERRYDYWGQGTQVTVSS | low polyreactivity |
| QVQLVESGGGLVQAGGSLRLSCAASGFIFGNYAMGWYRQAPGKERELVATITRRGGRTYYADSVKGRFTISRDIAKNTVYLQMTSLKPEDTAVYYCNARPSRWAREGYWGQGTQVTVSS | high polyreactivity |
| QVQLVESGGGLVQAGGSLRLSCAASGRTFIYNVMGWYRQAPGKERELVASIRSSGGSTYYADSVKGRFTISRDNAKNSVYLQMNSLKPEDTAVYYCAADRSPGIRCWPGDYWGQGTQVTVSS | low polyreactivity |
| QVQLVESGGGLVQAGGSLRLSCAASGFIFYRNAMGWYRQAPGKERELVAAISGSGGRTYYADSVNGRFTISRDNAKNTVYLQMNSLNPEDTAVYYCNAGLLYRGEYDYWGQGTQVTVSS | high polyreactivity |
| QVQLVDSGGGLVQAGGSLRLRCAASGSTFRRYAMGWYRQAPGKERELVAAISNRDGSTYYADSVKGRFTISRDNAKNTVYLQMNSLKADDTAVYYCNAYGYGDYSFLKYRFEYDYWGQGTQVTVSS | low polyreactivity |
| QVQLVESGGALVQAGGSLRLSCSASGSTLPGYAMVWYRQAPGKERELVAGISTRGGNTYYADSVKGRFTISRDNAKNTVYGQLNSLNPEDTAVYYCATTSSWRYGYWGEGTQVTVSS | high polyreactivity |
| QVQLVESGGGLVQAGGSLRLSCAASGFIFAANAMGWYRQAPGKEMELVARIRSTGRTSYADSVKGRFTISRDNAKNTVYLQMNSLKPEDTAVYYCATDYYRYRDYAYYWLDYNYWGQGTQVTVSS | high polyreactivity |
| QVQLVESGGGLVQAGGSLRLSCAASGFIYDYAMGWYRQAPGKEREFVARINWSGGSTYYADSVKGRFTISRDNAKNTVYLQMNSLKPEDTAVYYCATSGWAWRSSNPYEYWGQGTQVTVSS | low polyreactivity |
| QVHLVESGGGLLQAGGSLRLSCAASGITFSRNVMGWYIQAPGKERELVAAISTSGGSTYYADSVKGRFTISRDNAKNTVYLQMNSLKPEDTAGYYCAKDITVTYPGLDYDYWGQGTQVTVSS | low polyreactivity |
| QVQLQESGGGLVQAGGSLRQSYAASGYIFPSLAMGWYRQAPGKEREFVAAIGRGSTNNYADSVKGRFTISRDNAKNTAYQQMISLKPEDTAVYYCAAAASPLTRHLYWGQGTQVSVSS | low polyreactivity |
| QVQLVESGGGLVQAGGSHRLSCAASGRIFGTYAMGWYRQAPGKDRELVAAISFSGGSTYYADSVKGRFTISRDNAKNTVYLQMNSLKPDDTAVYYGAAGYRTYYGYRYGYWGQGTQVTVSS | high polyreactivity |
| QVQLVESGGGLVQAGGSLRLSCAASGRIIVLYAMGWYRQAPGKERELVASIRSGGSTNYADSVKGRFTISRDNAKNTVYLQMNSLKPEDTAVYYCAARIRSVVPFDMDYWGQGTQVTVSS | low polyreactivity |
| QVQLVESGGGLVQAGGSLRLSCAASGSTFSPNARGWYRQAPGKERELVAAITYRGANTYYADSVKGRFTISRDNAKNTVYLQMNSLKPEDTAVYYCAAENWIGAYYWGQGTQVTVSS | low polyreactivity |
| QVQLVESGGGFVHAGGSLRLSCAASGITSRFYAIGWYRQAPAKERELVAAITSGGGSTRYSDSVKGRFTISRDNAKNTVYLQMNSLKPEDTAVYYCNARVLYYVNGYGGCKRYGYWGQGTQVNVSS | high polyreactivity |
| QVHLVESGGGLVQAGGSLRLSCAASGSTFHKYALGWYRQAPGKEREYVAAISWSGGSTYYADSVKGRFTISRDNAKYTVYLQMNSLKPEDTAVYFCAARGNRYAYPRKYDYWGQGTQVTVSS | high polyreactivity |
| QVQLVESGGGLVPAGGSLRLSCAASGRIFPQYAMGWYRQAPGKERELVAAISYRGGSTYYADSVKGRFTISRDNAKNTVYSQMNSLKPEDTAVYYCAAKRYNYWGQGTQVTVST | high polyreactivity |
| QVQLVESGGGLVQAGGSLRLSCAASGLIFKTYAIGWYRLAPGNERELVAAISWSGGGNTYYADSVKGRFTISRDNAKNTVYLQMNSLKPEDTAVYYCNAPRFVSYDYWGQGTQVTVSS | high polyreactivity |
| QVQLVESGGGLVQAGGSLRLSSAASGFIFRGYAMGWYRQAPGKERELVAVISRSGTSTYYADSVKGRFTFSRDNAKNTVYLQMNSLKPEDTAVYYCAVLNYAGKYYYWGQGTQVTVSS | high polyreactivity |
| QVQLVESGGGLVQAGGSLRLSCAASGSIFPRYVMGWYRQAPGTARELVAAISGSGGSTYYADSVKGRFTISRDNAKNTVYLQMNSLKPEDTAVYYCNKLRRRVNRDIDDYWGQGTQVTVSS | high polyreactivity |
